{"source": "paper PMC11779849", "about": "“Outside-in engineering of cadherin endocytosis using a conformation strengthening antibody” (Nature Communications, 2025)", "binders": {"B1": {"name": "CQY684 Fab (Fab, V domains shown)", "VH": "QVQLQQSGPGLVKPSQTLSLTCAISGDSVSSQSAAWNWIRQSPSRGLEWLGRIYYRSKWYNDYALSVKSRITINPDTSKNQFSLQLNSVTPEDTAVYYCARGEGYGREGFAIWGQGTLVTVSS", "VL": "DIQMTQSPSSLSASVGDRVTITCRASQTISNTLAWYQQKPGKAPKLLIYAASNLQSGVPSRFSGSGSGTDFTLTISSLQPEDFATYYCQQYLSWFTFGQGTKVEIK", "notes": "variable region cloned into a human IgG Fab backbone; the constant parts of the GenScript human IgG Fab backbone may differ from those in PDB 6ZTR; also called CQY Fab; antibody part of the antibody-drug conjugate PCA062; source: recombinantly generated by GenScript"}}, "key": {"[1]": {"molecular_target": "T1, wild-type human P-cadherin ectodomain (EC1-5) (human, UniProt P22223, biotin on the Avi-tag (BirA enzyme))", "T1 construct": "signal peptide in the construct; human P-cadherin (placental cadherin), complete extracellular region EC1-5, ectodomain (1-654); Cloned into pcDNA3.1(+); residue numbers W2, K14 count on the mature protein; also called Pcad WT; WT Pcad; source: Expi293 suspension cells, transfected, purified from conditioned media (Ni-NTA), biotinylated with BirA; not shown: Avi-tag, C-terminal, kept", "T1 sequence (P22223 108-654)": "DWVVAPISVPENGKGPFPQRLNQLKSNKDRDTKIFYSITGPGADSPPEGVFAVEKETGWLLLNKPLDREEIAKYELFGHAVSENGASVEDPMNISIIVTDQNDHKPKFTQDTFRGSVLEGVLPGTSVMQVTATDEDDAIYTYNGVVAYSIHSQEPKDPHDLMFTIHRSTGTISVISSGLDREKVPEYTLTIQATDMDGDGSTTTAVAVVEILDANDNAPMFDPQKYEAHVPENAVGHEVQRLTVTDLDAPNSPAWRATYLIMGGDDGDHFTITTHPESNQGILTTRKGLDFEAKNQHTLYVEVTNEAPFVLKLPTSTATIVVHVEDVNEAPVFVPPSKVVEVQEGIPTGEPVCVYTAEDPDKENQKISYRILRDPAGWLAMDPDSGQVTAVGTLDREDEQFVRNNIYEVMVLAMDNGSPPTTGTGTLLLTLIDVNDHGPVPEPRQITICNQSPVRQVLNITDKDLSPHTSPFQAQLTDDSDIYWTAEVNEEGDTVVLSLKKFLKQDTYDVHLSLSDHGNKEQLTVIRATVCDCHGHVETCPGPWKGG", "experiment": "single-molecule AFM force spectroscopy; as the -CQY experiment but with 40 nM CQY684 Fab in the buffer (+CQY); Pcad EC1-5 on cantilever and substrate; 1 µm/s; Tris buffer pH 7.5 with 2.5 mM CaCl2", "conditions": "both partners purified"}, "[2]": {"molecular_target": "T2, human P-cadherin W2A mutant ectodomain (EC1-5) (Homo sapiens, UniProt P22223, point mutant, biotin on the Avi-tag (BirA enzyme))", "T2 construct": "signal peptide in the construct; Made with the Q5 site-directed mutagenesis kit from the WT ectodomain construct; also called Pcad W2A; W2A Pcad; source: Expi293 suspension cells, transfected, purified from conditioned media (Ni-NTA), biotinylated with BirA; not shown: Avi-tag, C-terminal, kept", "T2 sequence (P22223 whole entry, looked up, stated change not applied, the tested form may be a part)": "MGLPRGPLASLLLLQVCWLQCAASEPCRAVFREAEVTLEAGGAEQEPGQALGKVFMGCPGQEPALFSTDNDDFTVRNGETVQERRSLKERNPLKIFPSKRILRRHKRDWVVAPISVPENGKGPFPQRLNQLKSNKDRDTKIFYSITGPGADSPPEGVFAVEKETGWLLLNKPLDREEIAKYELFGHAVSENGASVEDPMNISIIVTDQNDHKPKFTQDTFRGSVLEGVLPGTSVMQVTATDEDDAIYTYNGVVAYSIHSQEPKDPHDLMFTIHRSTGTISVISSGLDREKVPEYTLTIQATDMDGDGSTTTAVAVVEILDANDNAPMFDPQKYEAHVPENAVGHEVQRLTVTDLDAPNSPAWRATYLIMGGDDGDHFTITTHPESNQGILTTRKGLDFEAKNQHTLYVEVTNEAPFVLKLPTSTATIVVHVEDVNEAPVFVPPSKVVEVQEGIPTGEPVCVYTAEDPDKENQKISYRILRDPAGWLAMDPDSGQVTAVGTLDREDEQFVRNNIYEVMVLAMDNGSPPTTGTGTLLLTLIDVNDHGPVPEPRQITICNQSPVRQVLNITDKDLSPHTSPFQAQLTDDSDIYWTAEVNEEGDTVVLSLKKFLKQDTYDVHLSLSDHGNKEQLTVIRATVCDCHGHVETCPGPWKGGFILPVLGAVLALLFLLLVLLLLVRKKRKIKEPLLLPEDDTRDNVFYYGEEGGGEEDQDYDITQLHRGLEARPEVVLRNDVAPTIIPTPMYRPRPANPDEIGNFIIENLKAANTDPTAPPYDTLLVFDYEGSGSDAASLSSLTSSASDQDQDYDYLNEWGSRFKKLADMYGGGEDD", "experiment": "far-Western, overlay or dot blot; Western blot: purified Pcad ectodomains boiled in SDS-PAGE sample buffer with 2-mercaptoethanol, run on gels, transferred to PVDF; probed with CQY684", "conditions": "both partners purified"}}, "data": [{"binder": "B1", "values": [{"measurement": "binding result", "setting": "[1]", "value": "binds"}, {"measurement": "binding result", "setting": "[2]", "value": "binds"}]}]}
